According to US20200339680A1 (Alector, published 2020):

Key:
[1] = target: T1, human TMEM106B (human, UniProt Q9NUM4 2-274); assay: FACS A549;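 also: flow cytometry of cells incubated on ice for 1 h with hybridoma supernatant or purified antibody at 10 µg/mL, dead propidium iodide-positive cells gated out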
T1 construct: full-length, transiently expressed on HEK293 cells, or natively expressed on HeLa, U251 and A549 cells (the cell is named under assay); also the source of the Pepscan peptides; also called huTMEM106B; huTMEM
Method: (§1) All cells were cultured in either T75 or T150 flasks. […] The enzyme was quenched by addition of fresh media, and the cells were then distributed into 96-well plates for FACS analysis.
(§2) FACS analysis was performed as follows. Each cell type was aliquoted in 96-well round bottom plates (2×10^5 cells per well), washed once with FACS buffer (PBS+2% FBS+1 mM EDTA), and incubated with 50 μL of hybridoma supernatant or purified antibody (10 μg/ml in FACS buffer) on ice for 1 hour. […] Following this secondary incubation, the cells were again washed 2× with ice-cold FACS buffer and resuspended in a final volume of 50 μL of FACS buffer+0.25 μl/well propidium iodide (Fisher Scientific #4BDB556463). Analysis was performed on a FACSCanto system (BD Biosciences) or iQue (Intellicyt), with sort gates drawn to exclude dead (i.e., propidium iodide positive) cells.

[2] = target: T1, human TMEM106B; assay: FACS HeLa
[3] = target: T1, human TMEM106B; assay: FACS U251
[4] = target: T2, mouse TMEM106B (mouse, UniProt Q80X71 2-275); assay: FACS Neuro2a;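 also: flow cytometry of antibody binding to cells: hybridoma supernatant or purified antibody at 10 µg/ml, 1 h on ice, secondary detection, propidium iodide–positive dead cells gated out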
T2 construct: transiently expressed on HEK293 cells, or native on mouse Neuro2a cells; also called moTMEM106B; murine TMEM106B
Method: as §1, §2

[5] = target: T1, human TMEM106B; assay: FACS A549 1 ug/ml
Method: (§3) Purified anti-TMEM106B antibodies were evaluated for their binding affinity to various TMEM106B-expressing cell lines including HEK293 transiently transfected with human/cyno/mouse TMEM106B, as well as HeLa cells and A549 cells. Antibodies tested for this experiment were mouse IgGs purified from hybridoma supernatant. Affinity binding to cells was determined as follows. Briefly, 1×10\hat{ }5 cells were aliquoted per well in 96-well round bottom plates and incubated with 50 μL of purified anti-TMEM106B antibody at various concentrations (10× dilutions starting at 10 μg/ml) in FACS buffer (PBS+2% FBS+1 mM EDTA). […] Sorting was performed on a iQue (Intellicyt), with sort gates drawn to exclude dead (propidium iodide+) cells. Binding data was analyzed using median fluorescent intensity (MFI) and graphed in Prism. Values presented are MFI.

[6] = target: T1, human TMEM106B; assay: FACS A549 10 ug/ml
[7] = target: T1, human TMEM106B; assay: FACS HEK+huTMEM 10 ug/ml;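 also: flow cytometric binding of purified mouse IgG antibodies to HEK293 cells transiently expressing human TMEM106B, read as median fluorescence intensity on live cells with propidium iodide-positive cells excluded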
Method: as §3

[8] = target: T1, human TMEM106B; assay: FACS HEK+huTMEM 0.1 ug/ml;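 also: flow cytometry binding of purified mouse IgG antibodies to HEK293 cells transiently expressing TMEM106B, read as median fluorescence intensity on live cells (propidium iodide negative gating)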
[9] = target: T1, human TMEM106B; assay: FACS HEK+huTMEM 1.0 ug/ml;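 also: binding of purified mouse IgG antibodies to HEK293 cells transiently expressing human TMEM106B, read by flow cytometry as median fluorescence intensity of live, propidium iodide-negative cells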
Method: as §3

[10] = target: T1, human TMEM106B; assay: FACS HEK+huTMEM 0.1 ug/ml (2nd column so headed);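 also: flow cytometry binding of purified anti-TMEM106B mouse IgG to HEK293 cells transiently transfected with TMEM106B, read as median fluorescence intensity on live (propidium iodide-negative) cells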
Method: as §3

Row | Binder | MFI [1] | MFI [2] | MFI [3] | MFI [4] | MFI [5] | MFI [6] | MFI [7] | MFI [8] | MFI [9] | MFI [10]
1 | TM-27 (antibody, V domains shown) VH: QVQLQQSGAELVRPGTSVKVSCKASGYALTNYLIEWVKQRPGQGLEWIGVINPGSGSTKYNEKFKGKATLTADKSSSTAYMQLSSLTSEDSAVYFCARIIYDHDWYFDVWGTGTTVTVSS VL: QIVLTQSPAIMSASPGEKVTISCSASSSISYMYWYQQKPGSSPKPWIYRTSTLASGVPARFSGSGSGTSYSLTISSMEAEDAATYYCQQYHSYPRTFGGGTKLEIK | 1930 MFI | 2960 MFI | 1320 MFI | 1580 MFI | 431 MFI | 622 MFI | 4140 MFI | 1700 MFI | 3040 MFI | 744 MFI
2 | TM-28 (antibody, V domains shown) VH: EVQLQQSGPVLVKPGPSVKISCMASVFTFNDYYIHWVKQSHGKSLEWIGLVYPYNGGTNYNQNFKGKATLTVDTSSRTAYMELNSLTSEDSAVYYCARSYFSNPIGYWGQGTLVTVSE VL: DIVMTQSPSSLSVSVGEKVTVSCKSSQSLLNSGNQKNYLAWYQQKPGQPPKLLIYGASTRESGVPDRFTGSGSGTDFTLTISSVQAEDLAVYYCQNDHSYPLTFGAGTKLELK | 2000 MFI | 2790 MFI | 998 MFI | 2740 MFI | 2630 MFI | 4350 MFI | 64800 MFI | 19800 MFI | 66400 MFI | 3340 MFI
3 | TM-29 (antibody, V domains shown) VH: QVQLRQSGAELVRPGASVKLSCKASGYTFTDYYINWVKQRPGQGLEWIARIYPGSGYTYYNEKFKGKATLTAEGSSNTAYMQLSSLTSEDSAVYFCANHYTNPFAYWGQGTLVTVSA VL: DIVMTQAAFSNPVTLGTSASISCRSSKSLLHYNGITYLYWYLQKPGQSPQLLIYQMSNLASGVPDRFSSSGSGTDFTLRISRVEAEDVGVYYCAQNLELPYTFGGGTKLEIK | 1410 MFI | 1650 MFI | 730 MFI | 1480 MFI | 2480 MFI | 4200 MFI | 61200 MFI | 24400 MFI | 63300 MFI | 4050 MFI
4 | TM-33 (antibody, V domains shown, mouse IgG (hybridoma)) VH: EFQLQQSGPELVKPGASVKISCKASGYSFTDYNMNWVKQSNGKSLEWIGVINPNYGTTSYNQKFKGKATLTVDQSSSTAYMQLNSLTSEDSAVYYCASSYWGQGTLVTVSA VL: DIVMTQSQKFMSTTVGDRVSITCKASQNVGTAVAWYQQKPGQSPKLLIYSASNRYTGVPDRFTGSGSGTDFTLTISNMQSEDLADYFCQQYSSYPYTFGGGTKLEIK | 298 MFI | 148 MFI | 202 MFI | 233 MFI | 366 MFI | 514 MFI | 12100 MFI | 1750 MFI | 5630 MFI | 651 MFI
5 | TM-35 (antibody, V domains shown) VH: QVQLQQSGPELVRPGTSVKISCKAPGYTFTRHWMQWVRQRPGQGLEWIGEILPGSNNIYYNEKVKGKATLTVDTSSSTSYMQLSSLTSEDSAVYFCARSLYDYDGVFAYWGQGTLVTVSA VL: DVLMTQIPLSLPVSLGDQASISCRSSQSIVHRNGNTYLEWYLQKPGQSPKLLIYKVSNRFSGVPDRFSGSGSGTDFTLKISRVEAEDLGVYYCFQGSHVPYTFGGGTKLEIK | 982 MFI | 241 MFI | 370 MFI | 181 MFI | 3270 MFI | 4200 MFI | 48700 MFI | 22600 MFI | 55400 MFI | 4080 MFI
6 | TM-42 (antibody, V domains shown) VH: QVQLQQSGAELAKPGASVKLSCKASGYTFTNYWMHWVKKRPGQGLEWIGYINPSSGYTKYNQKFKDKATLTADKSSNTAYMQLSSLTYEDSAVYYCTREGGSISDWYFDVWGTGTTVTVSS VL: DIVMTQAAPSLPVTPGESVSISCRSSKSLLHSNGNTYLYWFLQRPGQSPQLLIYRMSNLASGVPDRFSGSGSGTAFTLRISRVEAEDVGVYYCMQHLEYPYTFGGGTKLEIK | 947 MFI | 215 MFI | 326 MFI | 237 MFI | 1780 MFI | 3300 MFI | 60100 MFI | 16700 MFI | 58100 MFI | 2070 MFI
